The supplement of paper PMC7877785
± gives the uncertainty stated by the source.

Test: self-splicing fitness, log relative to wild type (ln ratio); higher = more splicing; Tetrahymena group I intron in knt gene, E. coli kanamycin selection, DiMSum; sequences stand for … in CUCUCU…GGAGGGAAAAGUUAUCAGGCAUGCACCUGGUAGCUAGUCUUUAAACCAAUAGAUUGCAUCGGUUUAAAAGGCAAGACCGUCAAAUUGCGGGAAAGGGGUCAACAGCCGUUCAGUACCAAGUCUCAGGGGAAACUUUGAGAUGGCCUUGCAAAGGGUAUGGUAAUAAGCUGACGGACAUGGUCCUAACCACGCAGCCAAGUCCUAAGUCAACAGAUCUUCUGUUGAUAUGGAUGCAGUUCACAGACUAAAUGUCGGUCGGGGAAGAUGUAUUCUUCUCAUAAGAUAUAGUCGGACCUCUCCUUAAUGGGAGCUAGCGGAUGAAGUGAUGCAACACUGGAGCCGCUGGGAACUAAUUUGUAUGCGAAAGUAUAUUGAUUAGUUUUGGAGUACUCGUGGUCG
In short: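 The eight P1ex-region nucleotides of an intron in the knt kanamycin-resistance gene on pET-22b(+) were all randomised and the library put into E. coli BL21(DE3). Six replicate transformations were grown overnight at 37°C or 30°C on LB agar with or without 25 μg/mL kanamycin, together with 100 μg/mL carbenicillin, 50 μM IPTG and 0.2% rhamnose. Colonies were pooled and amplicon-sequenced on an Illumina HiSeq 2500. Fitness from DiMSum is the error-weighted combination of wild-type-normalised replicate fold changes, kanamycin over none.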

Row | Sequence | self-splicing fitness (ln) (30 °C) | self-splicing fitness (ln) (37 °C)
1 | UACCAGCAAUAUUACGGCUA | 0.185 ± 0.066 | 0.554 ± 0.089
2 | CCCCAGCAAUAUUACGACAG | -3.96 ± 0.12 | -2.92 ± 0.14
3 | UGAUAGCAAUAUUACGUUCC | -1.67 ± 0.24 | -1.1 ± 0.4
4 | GCCCAGCAAUAUUACGCGCC | -4.19 ± 0.42 | -0.613 ± 0.19
5 | ACAUAGCAAUAUUACGAAUA | -2.06 ± 0.28 | -0.539 ± 0.2
6 | AUAAAGCAAUAUUACGGCGA | 0.447 ± 0.1 | 1.03 ± 0.14
7 | UCCUAGCAAUAUUACGUUCA | -2.91 ± 0.35 | -2.38 ± 0.25
8 | UAAUAGCAAUAUUACGUAAU | -3.25 ± 0.29 | -2.52 ± 0.34
9 | ACCUAGCAAUAUUACGCUAA | -2.61 ± 0.23 | -1.32 ± 0.16
10 | UCAGAGCAAUAUUACGACUC | -2.63 ± 0.22 | -2.31 ± 0.26
11 | AAAGAGCAAUAUUACGCUUC | -2.33 ± 0.29 | -3.01 ± 0.43
12 | UUAUAGCAAUAUUACGGUGA | -0.606 ± 0.12 | -0.405 ± 0.14
13 | CGUUAGCAAUAUUACGGACU | -0.292 ± 0.08 | 0.16 ± 0.11
14 | AUUUAGCAAUAUUACGGAGG | -2.53 ± 0.19 | -2.06 ± 0.27
15 | UGGGAGCAAUAUUACGCAGC | – | -3.01 ± 0.49
16 | UAGUAGCAAUAUUACGCAUU | -3.97 ± 0.21 | -1.52 ± 0.14
17 | GUCCAGCAAUAUUACGUACA | -1.73 ± 0.1 | -0.367 ± 0.1
18 | UACAAGCAAUAUUACGGGCG | -0.448 ± 0.1 | -0.308 ± 0.11
19 | AUUGAGCAAUAUUACGGCUG | -1.83 ± 0.14 | -1.81 ± 0.17
20 | AAAGAGCAAUAUUACGGGCU | -3.06 ± 0.17 | -3.58 ± 0.34
21 | CGUUAGCAAUAUUACGCCGU | – | -0.993 ± 0.44

Row | Sequence | self-splicing fitness (ln) (30 °C) | self-splicing fitness (ln) (37 °C)
22 | UAUUAGCAAUAUUACGCCUA | -0.107 ± 0.15 | -0.038 ± 0.14
23 | CGUGAGCAAUAUUACGACUU | -2.96 ± 0.16 | -1.71 ± 0.19
24 | UCGAAGCAAUAUUACGGCAG | -2.11 ± 0.097 | -0.963 ± 0.11
25 | AGACAGCAAUAUUACGUAUU | -2.58 ± 0.11 | -1.4 ± 0.12
26 | CGUAAGCAAUAUUACGCAGA | -2.28 ± 0.27 | -2.67 ± 0.38
27 | ACUAAGCAAUAUUACGGCGC | -0.144 ± 0.099 | -0.477 ± 0.096
28 | AGCCAGCAAUAUUACGCUCA | -1.83 ± 0.1 | -1.64 ± 0.13
29 | GUCGAGCAAUAUUACGACUU | -1.88 ± 0.27 | -1.3 ± 0.32
30 | CAGGAGCAAUAUUACGCACU | -2.54 ± 0.5 | -1.2 ± 0.34
31 | GUUAAGCAAUAUUACGCCAC | -3.63 ± 0.4 | -3.27 ± 0.47
32 | UUUAAGCAAUAUUACGAUGA | 0.318 ± 0.13 | -0.175 ± 0.14
33 | CACGAGCAAUAUUACGGUGA | -3.17 ± 0.23 | -2.98 ± 0.19
34 | AGCCAGCAAUAUUACGUUCU | -0.687 ± 0.053 | -0.266 ± 0.068
35 | AAUGAGCAAUAUUACGAGCC | -1.79 ± 0.44 | –
36 | CGUUAGCAAUAUUACGGAAA | -1.93 ± 0.38 | -2.11 ± 0.31
37 | CUCUAGCAAUAUUACGACAC | – | -2.49 ± 0.25
38 | AAUCAGCAAUAUUACGAACA | -0.526 ± 0.12 | -0.161 ± 0.13
39 | ACACAGCAAUAUUACGUAGG | -2.48 ± 0.087 | -1.64 ± 0.09
40 | CCUCAGCAAUAUUACGCAUC | -2.68 ± 0.18 | -2.85 ± 0.41
41 | UACCAGCAAUAUUACGGUUA | -0.306 ± 0.063 | 0.23 ± 0.076
42 | AACGAGCAAUAUUACGGGAG | -3.14 ± 0.17 | -2.72 ± 0.19

Row | Sequence | self-splicing fitness (ln) (30 °C) | self-splicing fitness (ln) (37 °C)
43 | CGUAAGCAAUAUUACGGCGU | -2.28 ± 0.15 | -1.59 ± 0.23
44 | GGUAAGCAAUAUUACGUUUC | -3.52 ± 0.27 | 0.249 ± 0.15
45 | AACAAGCAAUAUUACGUCAG | -3.64 ± 0.16 | -2.39 ± 0.14
46 | AUGAAGCAAUAUUACGAUGU | 0.274 ± 0.092 | -0.284 ± 0.099
47 | CAUCAGCAAUAUUACGUUGU | -3.52 ± 0.14 | -2.92 ± 0.16
48 | CAUGAGCAAUAUUACGGCAU | -3.35 ± 0.34 | -2.9 ± 0.47
49 | AACCAGCAAUAUUACGGACA | -0.462 ± 0.077 | -0.0476 ± 0.095
50 | GUGGAGCAAUAUUACGAAGG | -2.69 ± 0.27 | -2 ± 0.4
51 | UGCGAGCAAUAUUACGGGGC | -3.09 ± 0.27 | –
52 | UUCUAGCAAUAUUACGGUGU | -3.4 ± 0.32 | -2.91 ± 0.37
53 | GCGCAGCAAUAUUACGCGUC | -3.41 ± 0.16 | -2.41 ± 0.2
54 | UUCCAGCAAUAUUACGUCCA | -1.05 ± 0.12 | -0.679 ± 0.14
55 | ACUAAGCAAUAUUACGUAAC | -4.39 ± 0.26 | -2.48 ± 0.24
56 | CCGCAGCAAUAUUACGCAUC | -3.93 ± 0.28 | -1.95 ± 0.22
57 | AGUGAGCAAUAUUACGUCUG | -2.84 ± 0.34 | -2.07 ± 0.38
58 | UAGAAGCAAUAUUACGACCG | -0.345 ± 0.18 | -0.138 ± 0.25
59 | UAGUAGCAAUAUUACGAUGG | -2.93 ± 0.12 | -1.54 ± 0.11
60 | CUCGAGCAAUAUUACGGGGC | -3.41 ± 0.18 | -1.51 ± 0.16
61 | CACUAGCAAUAUUACGCCUG | -0.103 ± 0.15 | -0.344 ± 0.14
